The series relates to C/C=C/C=C/C(=O)CC(=O)SCCNC(C)=O. Briefly: purified protein.

A word on the kcat: it is the maximal rate divided by the concentration of active sites.

Turning to “LovB (lovastatin nonaketide synthase) (Aspergillus terreus)”, the kcat is 3.27 s⁻¹.

For the origin of these results see publication PMC4906797.
